{"source": "paper PMC10155811", "about": "(2022)", "binders": {"B1": {"name": "B56α (natural protein)", "chain": "not shown"}}, "key": {"BubR1": {"molecular_target": "BubR1", "test": "ITC; unphosphorylated peptide …"}, "BubR1-p": {"molecular_target": "BubR1-p", "test": "ITC; doubly phosphorylated peptide KLpSPIIEDpSR"}, "[1]": {"molecular_target": "Bub1 peptides encompassing the putative PP2A-B56 binding motif (amino acids 654-FSPIQE-659) (human, UniProt O43683)", "test": "ITC; doubly phosphorylated Bub1 peptide KFpSPIQEKpSP"}}}
{"binder": "B1", "values": [{"measurement": "Kd", "setting": "BubR1", "value": 4.6, "unit": "µM"}, {"measurement": "Kd", "setting": "BubR1-p", "value": 0.12, "unit": "µM"}, {"measurement": "Kd", "setting": "[1]", "value": 41, "unit": "µM"}]}
